Data on 41 sequences can be found in the nanobody polyreactivity screen of Harvey et al. (2022).

This series can be described thus: yeast display, Sf9 membrane polyspecificity reagent, FACS + sequencing; frameworks hold sequencing errors. Summed up:
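Using colony PCR, genes from sorted yeast display clones were amplified, then sequenced on MiSeq at 2 × 250 and filtered by CDR length. The clones had been stained with 10% biotinylated, detergent-solubilized Sf9 membrane reagent for 1 hour at 4 °C and sorted by FACS into low and high (top ~1%) gates on anti-HA and streptavidin fluorescence. Polyreactivity labels come from the gate of origin.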
On to “QVQLVESGGGLVQAGGSLRLRCAASGLTFGVYPMGWYRQAPGKERELVAAISSSGGSTYYADSVKGRYTISRDYAKNTVYLHMNSLKPEDTAVYYCNAGRGTKYDYWGQGTQVTVSS”, for which the “polyreactivity (PSR sort gate)” value is “low polyreactivity”.
With “QVQLVESGGGLVQAGGSLRLRCAASGLTFVYYAMGWYRQAPVKERELVAAITSGGSTYYADSVKGRFTISRDNAKNTVYLQMNSLKPEDTAVYYCAATYPGFYFLLDEYWGQGTQVTVSS” the entry was “high polyreactivity”.
Next, “QVQLVESGGGLVQAGGSLRLRCAASGNIFDDNAMGWYRQAPGKERELVAALTWTGGSTYYADSVKGRFTISRDNAKNTVYLQMNSLKAEYTAVYNCADYDYWGQGTQVTVSS”: “low polyreactivity”; “QVQLVESGGGLVQAGGSLRLRCAASGNTFFGYDMGWYRQAPGKERELVAAISGSGGGTYYADSVKGRFTISRDNAMNTVYLQMNCLKPEDTAVYYCAADSPQTEGYWGEGTQVTVSS”: “low polyreactivity”; “QVQLVESGGGLVQAGGSLRLRCAASGNTFGYYTMGWYRQAPAKESELVASIDSGGGTNYADSVKGRFTISRDNAKNTVYLQMNRLKPEDTAVYSCAAASPLYWVDDFESGWRYYYWGQGTQVTVSS”: “low polyreactivity”.
As to “QVQLVESGGGLVQAGGSLRLRCAASGRIFGRYAMGWYRQAPGKERELVARITYIAGNTYYADSVKGRFTISRDNSKNTVYLQMKSLKPEDTAVYSCNADSYYIQYDYWGQGTQVTVSS”, the “polyreactivity (PSR sort gate)” value is reported as “high polyreactivity”.
Consider “QVQLVESGGGLVQAGGSLRLRCAASGRLFQSNAMGWYIQAPGKERELVSGINSDTSTYYADSVKGRFTISRDNAKNTVYLKMNSLKPDDTAVYYCNAGWDTYYWQSTEFDYWGQGTQVTVSS”, for which the “polyreactivity (PSR sort gate)” value is “low polyreactivity”.
Next, “QVQLVESGGGLVQAGGSLRLRCAASGRTFAFYGMGWYRQAPGNARELVAAITKRGGSTYYADSVKGRFTISLDNAKYTVYLQMNSLKPEDTAVYYCAATGVKGRIAVWYGYWGQGTQVTVSS”: “high polyreactivity”; “QVQLVESGGGLVQAGGSLRLRCAASGRTFSGYAMGWYRQSPGKERELVAAITASGSSTYYADSVKGRFTSSRDNAKNTVDLQMNSLKPEDTAVYYCAADYTGDWADGPHSLREYDYWGQGTQVTVSS”: “low polyreactivity”; “QVQLVESGGGLVQAGGSLRLRCAASGRTFSSNAMGWSRQAPGKERQLVASITWSGRTYYADSVKGRFTNSRDNAKNTVYLQMNSRNPEDHAVYYCATVYRQESYFYTLYYWGQGTQVTVSS”: “high polyreactivity”.
Next, “QVQLVESGGGLVQAGGSLRLRCAASGRTFVGTAMGWYRQAPGKERELVAAISWDGGSPYYADSVKGRFTISRDNAKNTVYLQMNSLKPEDTAVYYCAALYRPSAFRGYGYWGQGTQVTVSS”: “high polyreactivity”; “QVQLVESGGGLVQAGGSLRLRCAASGRTFWKNAMGWYRQEPRKECELVAAISWGGGSTYYADSVKGRFTISRDNAKNTVYLQMNSLKPEDTAVYYCNVYYRRVLLGFYYWGQGTQVTVSS”: “low polyreactivity”; “QVQLVESGGGLVQAGGSLRLRCAASGRYAMGWYRQAPGKEREFVARITWSGGSTYYADSVKGRFTISRDNAKNTVYLQMNSLNPEDTAVYYCAKVSRRTDYYYWGQGTQVTVSS”: “high polyreactivity”.
With “QVQLVESGGGLVQAGGSLRLRCAASGSIFFFYAMGWYSQARGKEREFVAGITYSGGITYYADSVKGRFTISRDNAKNTDYLQMNSLKPEDTAVYFCDYGGGVYQYGYWGQGTQVTVSS” the entry was “low polyreactivity”.
As for “QVQLVESGGGLVQAGGSLRLRCAASGSIFISYAMGWYRQAPGKERELVAAISIRGTRTFYADSVKGRFTISRDNAKNTVYLQMNSLKPEDTAVYYCAARAPWPKWGYYYWGQGTQVTVSS”, the “polyreactivity (PSR sort gate)” value is “high polyreactivity”.
With “QVQLVESGGGLVQAGGSLRLRCAASGSIFKRYAMGWYRQAPGKERELVAAISWGGGRTYYADSVKGRFTISRDTAKNTVYLQMNSLKPEDTAVYYCNRVGSYGQSNSYQGGDYWGQGTQVTVSS” the entry was “high polyreactivity”; with “QVQLVESGGGLVQAGGSLRLRCAASGSIFKTYAMGWYRQAPRKERELVAAITTSGGRTYYADSVKGRFTISRDNAKYTVYLQMNSLKPEDTAVYYCNADLFPGYVSYPEYDYWGQGTQVTVSS”, “low polyreactivity”; with “QVQLVESGGGLVQAGGSLRLRCAASGSIFNSYAMGWSRQAPGKERELVAAISIRGTRTYYADSVKGRFTISRDNAKNTVYLQMNSLKPEDTAVYYCAADASYTEGMDYWGQGTQVTVSS”, “high polyreactivity”.
With “QVQLVESGGGLVQAGGSLRLRCAASGSIFSRNAMGWYRQAPGKERELVAAISGRGGSTYYADSVKGRFTISRDNAMNTVYLQMNRLKPEDTAVYYCAKAVIYRLSEAMDYWGQGSQVTVSS” the entry was “high polyreactivity”; with “QVQLVESGGGLVQAGGSLRLRCAASGSILPWYAMGWYRHAPGKERELVAVITSDGGTNYADSVKGRFTISRDNSKNTVYLQMNSLKPEDTAVYYCAADRFSQSGFDSWGQGTQVTVSS”, “low polyreactivity”; with “QVQLVESGGGLVQAGGSLRLRCAASGSNFDTYAMGWYRQAPGKERELDAAINSGGGTNYADSVKGRFTISRDNANNTVYLQMNSLKPEDTAVYYCATDIRREAGGGDFDYWGQATQVTVSS”, “low polyreactivity”.
With “QVQLVESGGGLVQAGGSLRLRCAASGSNFKHNDMGWSRPAPGKERELVAAISRSGGSTYYADSVKGRFTISRDNGKNTVYLPMNSLKPEDTAVYYCNAGRRTGRYGYWGQGTQVTVSS” the entry was “high polyreactivity”.
Take “QVQLVESGGGLVQAGGSLRLRCAASGSTCWFSAMGWSRQATGTERELVATITIGARTYADSVKGRCTISRDNPKTTVYVQMNSLKPEETAVYYCAARRRRLEYDYGRNDYWGQGTQVTVTS”: the “polyreactivity (PSR sort gate)” value is reported as “low polyreactivity”.
Next, “QVQLVESGGGLVQAGGSLRLRCAASGSTFASYAMGGYRQAPGKERELVAAITRSGGSTYYADSVKGRFTISRVKAKNTVYLQMNSLKPEDTAVYYCARRAVYGIFDYWGQGTQVTVSS”: “high polyreactivity”; “QVQLVESGGGLVQAGGSLRLRCAASGSTFDSYAMGWYRQAPGKERELVAAITTTGGSTFYADSVKGRFTISRDYAKNTVYLQMNSLKPEDTAVYYCAADDGWQEFEYWGQGTQVTVSS”: “low polyreactivity”; “QVQLVESGGGLVQAGGSLRLRCAASGSTFGGYAMGWYRQAPGKERELVAAISRRGGRTYYADSVKGRFRISRDNAKNTVYLQRNSLKPEDTAVYYSAADWSYVRYYYWGQGTQVTVSS”: “high polyreactivity”.
With “QVQLVESGGGLVQAGGSLRLRCAASGSTFGKNAMGWYRQAPGKERELVAAISKNGGSTYYADSVKGRFTISRDNAKNTVYILMNSLKPEDTAVYYCNTRRKNFVKSSQVEYWGQGTQVTVSS” the entry was “high polyreactivity”; with “QVQLVESGGGLVQAGGSLRLRCAASGSTFGLYTMGWYSQAPGKERELVASISIVGSTYYADSVKGLFTSSRDNAKNTVYFQMNSLKPVDTAVYYCAADSEIIYTVRNRTYPWIMDYWGQGTQVTVSS”, “low polyreactivity”; with “QVQLVESGGGLVQAGGSLRLRCAASGSTFTSYTMGWYRQAPGKERELVARITRGGGSTYYADSVKGRFTISRDNAKNTVYLQMNSLKPEDTAVYYCAKQVVGRAYYSWGQGTQVTVSS”, “low polyreactivity”.
With “QVQLVESGGGLVQAGGSLRLRCAASGSTFYGNTMGWNRQAPGKERELVAAITWTGGRTYYADSVKGRFTISRDNAKNTVYLQMNSLIPEDTAVYYCARGASFYQKFYYWGQGTQVTVSS” the entry was “high polyreactivity”.
For the sequence “QVQLVESGGGLVQAGGSLRLRCAASGSTFYGYVMGWYRQAPGQERELVAAITNRAGSTYYADSVKARFTISRDNAKNTVYVQMNSLKPEDTAVYYCNARRPAKSRYRHVYWGQVTQVTVSS”, the “polyreactivity (PSR sort gate)” value was “high polyreactivity”.
Regarding “QVQLVESGGGLVQAGGSLRLRCAASGYNIQHYAMGWYRQAPGKERELVAAITSGGSTTYADSVKGRFTISRDNAKNTVYLQMNSLKPEDTAVYYCKALRRARYTRKGYEYWGQGTQVTVSS”, the “polyreactivity (PSR sort gate)” value is reported as “high polyreactivity”.
Next, “QVQLVESGGGLVQAGGSLRLRCAASVRTFYTYAMGWYRQAPGKERELVAAISKRGTSTYYADSVKGRFTISRDNAKNTDYFQMNSLKPQDTAVYYCAAAVYQRARYYWGQGTQVTVSS”: “high polyreactivity”; “QVQLVESGGGLVQAGGSLRLRGAASGGILVGYAMGWYRQAPGKERELVAAINYSGGSTNYADSVKGRFTISRDNAKNTVYLQMNSLKPEDTAVYYCAARSTARYGYWGQGTQVTVSS”: “low polyreactivity”.
Next, “QVQLVESGGGLVQAGGSLRLRWDASGRILWYNAMGWYRQAPGKERELVAAIRSGGRTHYADSVKGRFTISRDNAKNTVYLQMNCLKPEDTAVYYCAARSVPYPYRRNPYDYWGQGTQVTVSS”: “high polyreactivity”; “QVQLVESGGGLVQAGGSLRLSCAAAGRTFYSYAMGWYRQAPGKEREFVAAINWSGTSTYADSVKGRFTISRDNAKNTVYLQMTSLKPEDTAVYYCAADLPAEYYHWGQGTQVTVSS”: “high polyreactivity”; “QVQLVESGGGLVQAGGSLRLSCAAAGRTVPRYTMGWYRQAPGKEMELVAAISRGGSTNYAYSVKGLFTISRDNAKNTVYLVMNSLKPEDTAVYYCNADYWYDWKSYDYWGEGTQVTVSS”: “high polyreactivity”.
In the case of “QVQLVESGGGLVQAGGSLRLSCAAAGSTFHRYVMGWYRQAPGQERELVAVINSTGGSTYYADSVKGRFTISRDNAKNTVYLQMKCLKPEDTAVYYCARVTRRGPGYSTLFSRYDYWGQGTQVTVSS”, the “polyreactivity (PSR sort gate)” value is listed as “low polyreactivity”.
With “QVQLVESGGGLVQAGGSLRLSCAAARIFVYNAMGWYRQAPGKERELVATITSSGGITYYADSVKGRFTISRDNAKNTVYLQMKSLKPEDTAVYYCNKVRRYYYRTHNVYWGQGTQVTVSS” the entry was “high polyreactivity”.
With “QVQLVESGGGLVQAGGSLRLSCAAARYAMGWYRQAPGKERELVAAISKSGGSTYYADSVKGRFTISRDNAKNTVYLQMNSLKPEDTAVYYCAARGHAGRGEYYYWGQGTQVTVSS”, the “polyreactivity (PSR sort gate)” value is “high polyreactivity”.
Next, “QVQLVESGGGLVQAGGSLRLSCAACGFTFWDYAMGWYSQAPGKERELVAAISDNDGSTDYADSVKGRFTISRDNAKNTVYLQMNSLKPEDSAVYYCNAEIELPSKEGDYWGQGTQVTVSS”: “low polyreactivity”.
